In article PMC5933801, “Cryo-EM structure of infectious bronchitis coronavirus spike protein reveals structural and functional evolution of coronavirus spike proteins” (PLoS Pathogens, 2018):

Biological target: the molecule itself
Test: cryo-EM structure; IBV spike ectodomain 0.35 mg/ml in 2 mM Tris pH7.2 and 20 mM NaCl, plunge-frozen; pre-fusion state; three-fold noncrystallographic symmetry constraints in refinement

B1: IBV spike ectodomain (avian infectious bronchitis coronavirus, strain M41) (domain or fragment)
chain: LYDSSSYVYYYQSAFRPPNGWHLHGGAYAVVNISSESNNAGSSPGCIVGTIHGGRVVNASSIAMTAPSSGMAWSSSQFCTAHCNFSDTTVFVTHCYKYDGCPITGMLQKNFLRVSAMKNGQLFYNLTVSVAKYPTFKSFQCVNNLTSVYLNGDLVYTSNETTDVTSAGVYFKAGGPITYKVMRKVKALAYFVNGTAQDVILCDGSPRGLLACQYNTGNFSDGFYPFINSSLVKQKFIVYRENSVNTTFTLHNFTFHNETGANPNPSGVQNILTYQTQTAQSGYYNFNFSFLSSFVYKESNFMYGSYHPSCNFRLETINNGLWFNSLSVSIAYGPLQGGCKQSVFSGRATCCYAYSYGGPSLCKGVYSGELDLNFECGLLVYVTKSGGSRIQTATEPPVITRHNYNNITLNTCVDYNIYGRTGQGFITNVTDSAVSYNYLADAGLAILDTSGSIDIFVVQGEYGLTYYKVNPCEDVNQQFVVSGGKLVGILTSRNETGSQLLENQFYIKITNGTRRFRRSITENVANCPYVSYGKFCIKPDGSIATIVPKQLEQFVAPLLNVTENVLIPNSFNLTVTDEYIQTRMDKVQINCLQYVCGNSLDCRDLFQQYGPVCDNILSVVNSIGQKEDMELLNFYSSTKPAGFNTPFLSNVSTGEFNISLLLTTPSSPRRRSFIEDLLFTSVESVGLPTDDAYKNCTAGPLGFLKDLACAREYNGLLVLPPIITAEMQTLYTSSLVASMAFGGITAAGAIPFATQLQARINHLGITQSLLLKNQEKIAASFNKAIGRMQEGFRSTSLALQQIQDVVNKQSAILTETMASLNKNFGAISSVIQEIYQQLDAIQANAQVDRLITGRLSSLSVLASAKQAEHIRVSQQRELATQKINECVKSQSIRYSFCGNGRHVLTIPQNAPNGIVFIHFSYTPDSFVNVTAIVGFCVKPANASQYAIVPANGRGIFIQVNGSYYITARDMYMPRAITAGDIVTLTSCQANYVSVNKTVITTFVDNDDFDFNDELSKWWNDTKHELPDFDKFNYTVPILDIDSEIDRIQGVIQGLNDSLIDLEKLS
modifications: glycans N-linked to 20 sites
notes: Spike protein of avian infectious bronchitis coronavirus (IBV) strain M41, GenBank ABI26423.1, ectodomain residues 20-1084; transmembrane anchor and intracellular domain replaced by GCN4 and His6 tags; The structural model holds residues 21-1022 except 702-710; The GCN4 tag is a trimerization tag; also called trimeric IBV spike ectodomain; source: Sf9 insect cells (Bac-to-Bac), harvested from …
  stoichiometry N: 3
